Data on twelve molecules can be found in US20260151519A1 (AKTIS ONCOLOGY, published 2026).

T1: Human Nectin-4 (human, UniProt Q96NY8 32-349, limits assumed)
T1 construct: Protein immobilised on the SPR chip; also called target protein
T1 sequence: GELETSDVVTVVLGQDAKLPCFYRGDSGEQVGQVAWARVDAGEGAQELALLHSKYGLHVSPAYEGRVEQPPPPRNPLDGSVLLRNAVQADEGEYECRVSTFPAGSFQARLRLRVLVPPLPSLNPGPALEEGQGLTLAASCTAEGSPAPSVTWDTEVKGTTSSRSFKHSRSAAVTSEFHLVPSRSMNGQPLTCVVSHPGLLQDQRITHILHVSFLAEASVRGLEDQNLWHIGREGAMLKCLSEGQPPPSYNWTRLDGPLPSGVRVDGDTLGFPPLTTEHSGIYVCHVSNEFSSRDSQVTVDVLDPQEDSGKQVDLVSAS

T2: Human Nectin-4 expressed on cells (human, UniProt Q96NY8 32-510)
T2 construct: Endogenous on HT-1376 cells; also called endogenous Nectin-4 on HT-1376 cells; cell surface Nectin-4
T2 sequence: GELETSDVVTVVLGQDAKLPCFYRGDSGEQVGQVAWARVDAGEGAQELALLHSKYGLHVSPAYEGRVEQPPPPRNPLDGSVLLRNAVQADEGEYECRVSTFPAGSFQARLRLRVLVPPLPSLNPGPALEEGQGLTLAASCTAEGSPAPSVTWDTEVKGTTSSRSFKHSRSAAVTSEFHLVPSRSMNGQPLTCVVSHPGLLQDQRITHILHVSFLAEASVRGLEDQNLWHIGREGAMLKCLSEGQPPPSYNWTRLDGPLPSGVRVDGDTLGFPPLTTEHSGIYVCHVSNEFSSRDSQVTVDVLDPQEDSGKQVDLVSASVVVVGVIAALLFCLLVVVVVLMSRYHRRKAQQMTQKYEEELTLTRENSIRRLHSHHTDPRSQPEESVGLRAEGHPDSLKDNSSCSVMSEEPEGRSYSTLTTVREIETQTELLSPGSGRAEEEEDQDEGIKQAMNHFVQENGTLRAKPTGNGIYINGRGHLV

Bridges are numbered along the chain shown (N, C = ends). Primed or numbered codes have the meaning given here. Where no end group is shown, it is not given here. [ ]: non-standard residue; d: D form. The star is where a group is joined. DOTA = O=C(O)CN1CCN(CC(=O)O)CCN(CC(=O)*)CCN(CC(=O)O)CC1; Biotin = O=C1N[C@H]2[C@H](CS[C@H]2CCCCC(=O)*)N1; Lys(Me3) = C[N+](C)(C)CCCC[C@H](N)C(=O)O; Arg(Me2s) = CN=C(NC)NCCC[C@H](N)C(=O)O; PEG4″ = 4(ethylene glycol); PEG4′ = not defined here

One assay addresses T1, Human Nectin-4. Put plainly: SPR, Biacore T200, target immobilised, 1:1 model. How it is done: Surface plasmon resonance (SPR) analyses were performed using Biacore T200 (GE Healthcare). Target protein (“ligand”) was immobilized to a CM5 Series S sensor chip (Cytiva) using amine-coupling chemistry. Running buffer was 0.05% surfactant P20 in HEPES buffered saline (HBS-P), pH 7.4 (Cytiva). Immobilization was performed at 25° C. Carboxyl groups in each flow cell were activated using a 1:1 mixture of 0.4 M 1-ethyl-3-(3-dimethylaminopropyl)-carbodiimide in water (EDC) and 0.1 M N-hydroxysuccinimide in water (NHS) for 7 minutes. The ligand was prepared in 10 mM sodium acetate pH 5 (Cytiva). Pulsatile injections were made to target a specific immobilization level. Any remaining amine-reactive esters on the chip surface were blocked with a 7-minute injection of 1 M ethanolamine, pH 8.5. Three 10-second pulses of 50 mM sodium hydroxide were then made to remove any unbound ligand. Reference cells were modified using amine coupling chemistry, omitting ligand injection.
Increase in signal (RU) is proportional to an increase in binding events between the analyte and ligand surface. The injection was then stopped, and dissociation was measured. […] Measured association (kₐ, 1/Ms⁻¹) and dissociation (kd, s⁻¹) were fit to a 1:1 binding model to calculate a dissociation equilibrium constant, KD(M) for each analyte.
In turn, {Biotin-PEG4″}-CEYDEQFFTALARLRGGDICEYIQARFQYLPGLCIEEILDNLGCS (designed binder, disulfide 1-34, 20-44) [C264] showed a Kd of 0.476 nM.
Still for that read-out and setting: the result for {Biotin-PEG4″}-CEYDEQFFTALARLRGGDICEYIQA[Arg(Me2s)]FQYLPGLCIEEILDNLGCS (designed binder, disulfide 1-34, 20-44) [C267] reads 0.586 nM.

The target in the next assay is T2, Human Nectin-4 expressed on cells. Put plainly: radioligand binding, 177Lu-labelled compound, HT-1376 cells. How it is done:
On the day of assay, culture medium was removed and PBS was added to cells. Association kinetics were measured at three concentrations of radioligand, and this was performed by the addition of lutetium-177 radioconjugates to cells at various time points from 1 to 60 minutes.
Turning to {DOTA-PEG4′}-CEYDEEFFTALKRLRGGDICYYIKKKFKKVPKLCIEEILDKLGC-NH2 (designed binder, cysteine pairing not given here; also: 177Lu label on DOTA) [C215], the Kd amounted to 5.01 nM. This lies in the single-digit nanomolar range.
Molecule {DOTA-PEG4″}-CEYDEEFFTALKRLRGGDICYYIKKKFDYLPKLCIEEILDNLGC-NH2 (designed binder, disulfide 1-34, 20-44; also: 177Lu-labelled in the radioligand assay) [C214] displayed a Kd of 3.03 nM.
Still for that read-out and setting: the result for {DOTA-PEG4″}-CEYDEEFFTALKRLRGGDICYYIKKKFKKVPKLCIEEILDKLGC-NH2 (designed binder, disulfide 1-34, 20-44; also: 177Lu-labelled in radioligand assay) [C82] reads 14.1 nM.
The same measure, in the same setting: the result for {DOTA-PEG4″}-CEYDEEFFTALKRLRGGDICYYIQASFQYLPGLCIEEILDNLGCS (designed binder, disulfide 1-34, 20-44; also: 177Lu-labelled in radioligand assay) [C109] reads 8.72 nM; that for {DOTA-PEG4″}-CEYDEEFFTALKRLRGGDICYYIQAKFQYLPKLCIEEILDNLGCS (designed binder, disulfide 1-34, 20-44; also: 177Lu-labelled in the radioligand assay) [C117], 2.64 nM.

For a further assay the target is unchanged. In words: DELFIA whole-cell competition against a europium-chelate miniprotein. As for the experimental part: A whole cell binding assay was used to estimate the equilibrium binding affinity (KD) or binding inhibition constant (Kᵢ) of miniprotein ligands to cells expressing a target of interest. Cells were dispensed into a 384-well plate and incubated at 37° C. in 5% CO₂ overnight. The next day cells were gently washed once in assay buffer prior to addition of europium chelated ligand. […] For Kᵢ determination, a single concentration (KD equivalent concentration) of europium-chelate miniprotein was added to each well followed immediately by the addition of unconjugated competing ligand over 12 different concentrations ranging from 100 times below and above expected Kᵢ values as before. […] Cells were then washed three times at room temperature with 1×PBS followed by the addition of 2 M HCl and incubated for two h at 37° C. Following this step, 2 M NaOH and fluorescent inducer solution were added to each well and incubated for 30 minutes at room temperature according to the manufacturer's protocol (Perkin-ELMER DELFIA assay). Plates were read on an Envision plate reader and a curve-fitting model was applied to estimate KD and Kᵢ values using GraphPad Prism software.
On to {Biotin-PEG4″}-CEYDEQFFTALARLRGGDICEYIQARFQYLPGLCIEEILDNLGCS (designed binder, disulfide 1-34, 20-44) [C264], for which the Ki was 0.53 nM. In other words, the sub-nanomolar range.
Same read-out and setting: the same measure for {Biotin-PEG4″}-CEYDEEFFTALARLRGADICQYIQA[Lys(Me3)]FQYLPALCIEEILDNLGCS-OH (designed binder, disulfide 1-34, 20-44) [C252]: 0.76 nM.
On the same count and under the same terms, the same measure for {Biotin-PEG4″}-CDYDEQFFTALKRLRGADICEYIQA[Lys(Me3)]FQYLPGECIEEILDNLGCS-OH (designed binder, disulfide 1-34, 20-44) [C257]: 0.66 nM.
Regarding {Biotin-PEG4″}-CEYDEQFFTALARLRGADICEYIQARFQYLPGLCIEEILDNLGCS-OH (designed binder, disulfide 1-34, 20-44) [C280], the Ki amounted to 0.54 nM.
On the same count and under the same terms, the same measure for {Biotin-PEG4″}-CDYDEQFFTALKRLRGGDICEYIQA[Lys(Me3)]FQYLPGECIEEILDNLGCS-OH (designed binder, disulfide 1-34, 20-44) [C255]: 0.66 nM.
On the same count and under the same terms, the result for {Biotin-PEG4″}-CEYDEQFFTALARLRGADICEYIQA[Lys(Me3)]FQYLPGLCIEEILDNLGCS-OH (designed binder, disulfide 1-34, 20-44) [C262] reads 1.04 nM.
Same read-out and setting: the same measure for {Biotin-PEG4″}-CEYDEQFFTALARLRGGDICEYIQA[Arg(Me2s)]FQYLPGLCIEEILDNLGCS (designed binder, disulfide 1-34, 20-44) [C267]: 0.76 nM.

For orientation: Kd means the equilibrium constant for the complex coming apart. Low values mean tighter binding, high ones weaker binding. The Ki is a measure of affinity in units of concentration, obtained from inhibition or displacement. A low value points to higher affinity.
